Data as given in US8940299B2, “Method of treating cancer” (Case Western Reserve University, priority 2008, dated 2015).

Columns and labels:
[1] = tested on: phospho-Ser473 AKT; assay: AKT phosphorylation in WT T cells stimulated with anti-CD3+anti-CD28 (immunoblot, Luminex); assay type: cell-based, mouse; details: 0.1 μM PI-103, 20 min
Method: FIG. 5 illustrates immunoblots of A) anti-phospho-Ser473 AKT (rep of 5 exps) of WT T cells incubated with anti-CD3+anti-CD28±C5aR-A+C3aR-A (10 ng/ml each). B) anti-phospho-Ser473 AKT (rep of 5 exps) of WT or C5ar1−/−C3ar1−/− T cells incubated with anti-CD3+anti-CD28.
FIG. 6 illustrates C5aR and C3aR Ligation Activates PI3-Kγ, which in turn promotes AKT Phosphorylation. […] (p<0.05). […] (B) WT T cells were incubated at 37° C. with anti-CD3+anti-CD28 (1 μg/ml each) for 3 min after which the cells were incubated for 20 min with buffer or 0.1 μM PI-3Kγ-specific inhibitor PI-103. Extracts were immunoblotted with anti-phospho-Ser^473 AKT or total AKT mAb (representative of five experiments). (C) OT-II T cells were incubated with 0.1 μM OVA323-339, WT DCs, and 0.1 μM PI-103±10 ng/ml C5a. Complement, IL-2, and IFNγ mRNAs were quantitated by qPCR. All error bars are ±SD.
To test whether abrogated CD28 costimulation in the absence or blockade of C5aR+C3aR relates to a requirement for these GCPR signals for optimal AKT phosphorylation, we stimulated WT T cells with anti-CD3+anti-CD28±C5aR-A and C3aR-A and assessed AKT phosphorylation by immunoblotting (FIG. 5A) and Luminex assay (FIG. 6A).
Cells were stimulated for 1 hr with 1 μg/ml anti-CD3 and/or anti-CD28 (BD Biosciences) in serum-free RPMI 1640 for qPCR analyses and for 72 hr for IFNγ ELISPOT assays. […]

[2] = tested on: Complement, IL-2, and IFNγ mRNAs; assay: qPCR of complement, IL-2 and IFNγ mRNAs in T cells with PI-103; assay type: cell-based, mouse
Method: To test whether this signaling pathway is operational in T cells, we incubated WT T cells with anti-CD3+anti-CD28 plus a specific inhibitor (PI-103) of PI-3Kγ.
We synthesized cDNAs by incubating 20 μl of mRNAs in Sprint PowerScript Single Shots (Clontech, Mountain View, Calif.). A total of 10 μl of diluted cDNA were mixed with 2 μl of primer and 10 μl SYBR green master mix (Applied Biosystems, Foster City, Calif.) and assayed in triplicate on an ABI prism 7000 cycler. In all assays, fold increases are relative to each basal level and standardized to Actin.

[3] = tested on: EGF receptor (EGFR); assay: EGFR phosphorylation in the 3 tumor lines (immunoprecipitation, anti-phosphotyrosine immunoblot); assay type: cell-based, murine
Description: (§1) Unregulated EGFR signaling has causally linked with certain cancers. Additionally, an earlier study in the literature reported that added C5a can induce EGFR phosphorylation in HeLa cells. Based on these two findings, we next asked whether EGFR phosphorylation in cancers cells is in fact dependent on C3aR/C5aR signal transduction. To do this, we cultured each of the 3 tumor lines in the presence of buffer alone, C5aR-A/C3aR-A and anti-C3a/anti-C5a mAb, or vehicle and nonrelevant mAb controls. After 2 hr, we added increasing amounts of EGF, 2 min after which we extracted the cells with NP-40 lysis buffer. We then immuoprecipitated EGFR from lysates with specific antibody and probed immunoblots of the precipitates with anti-phosphtyrosine mAb. […] To determine this C3aR/C5aR dependent step is an intermediary for EGFR phosphorylation, we repeated the above study this time using PI-103, a specific inhibitor of this enzyme. […] In a converse study, we incubated each of the 3 tumor lines without and with added C5a and measured cell growth.

[4] = tested on: T cells; assay: In vitro T cell viability in serum-free HL-1 medium; assay type: cell-based, mouse; details: 300 ng/ml C5a added at time 0 and 90 min, both knockouts
Method: FIG. 7 illustrates constitutive C5a and C3a Production and Signaling via the C5aR and C3aR GPCRs Influences Cell Viability In Vitro and In Vivo. […] (B) WT and C5ar1^−/−, C3ar1^−/−, and C5ar1^−/− C3ar1^−/− T cells were incubated for 6 hr in serum-free HL-1 medium and viability assayed. (C) WT T cells were incubated at 37° C. for 6 hr in HL-1 medium±anti-C3a, anti-C5a, or anti-C3a+anti-C5a and viability assessed. (D) C3^−/− and C5-deficient T cells were incubated for 6 hr in HL-1 medium±300 ng/ml C5a added at time 0 and 90 min (E) Spleens from naive WT, C3ar1^−/−, C5ar1^−/−, and C3ar1^−/− C5ar1^−/− mice were isolated (three to five animals per group), total cell numbers were counted, and the CD3^+ fraction was determined by flow cytometry (WT=10%, C5ar1^−/−=5.4%, C3ar1^−/−=6.3, and C5ar1^−/− C3ar1^−/−=4.1%). (F) Immediately after isolation and labeling, 10^6 CFSE-labeled WT T cells and CellTracker Red CMTPX-labeled C5ar1^−/− C3ar1^−/− T cells were adoptively cotransferred into the same SCID mice (n=4 mice per group for each time point). […]
To test this possibility, we compared the survival of WT and C5ar1^−/− C3ar1^−/− T cells in vitro […]. […] Fewer surviving C5ar1^−/− C3ar1^−/− T cells were detected at 6 hr, confirming that disrupted autocrine signaling through both the C5aR and C3aR contributed to the decline (FIG. 7B). […]

[5] = tested on: B16/F10 (melanoma cell); assay: Cell growth after mouse C5a treatment in Opti-MEM; assay type: cell-based, murine; details: 100 nM C5a, 72 hr culture
Method: (§2) FIG. 2 illustrates graphs showing cell growth in 3 cancer cell lines (a) MCA 205 (fibrosarcoma), (b) B16 (melanoma cell), and (c) E0771 (breast cancer) after mouse C5a treatment in Opti-MEM media (serum-reduced media).
(§3) (a) MCA 205, (b) B16/F10 and (c) E0771. Data are representative of two experiments with duplicates. MCA 205 and E0771 were treated with 500 nM C5a and B16/F10 was treated with 100 nM C5a respectively.
(§4) Three kinds of cancer cell lines (B 16/F10, MCA 205 and E0771) were used for this experiment. Each cell line was cultured in 12-well plates (3×10^4/well) in serum reduced Opti-MEM media (Invitrogen) containing L-glutamine and penicillin+streptomycin for the indicated times (24 hr, 48 hr and 72 hr). C5a (Cell Sciences) in PBS was added in each well at 0, 24 and 48 hr time point to a final concentration 100 nM for B16/F10 and 500 nM for MCA205 and E0771 based on the preliminary experiment. At each time point (24 hr, 48 hr and 72 hr), live cells were trypsinized and counted using trypan blue (Invitrogen, Carlsbad, Calif.). Experiment was repeated two times with duplicates.

[6] = tested on: E0771 (breast cancer); assay: Cell growth after mouse C5a treatment in Opti-MEM; assay type: cell-based, murine; details: 500 nM C5a, 72 hr culture
Method: as §2, §3, §4

[7] = tested on: MCA 205 (fibrosarcoma); assay: Cell growth after mouse C5a treatment in Opti-MEM; assay type: cell-based, murine; details: 500 nM C5a, 72 hr culture
Method: as §2, §3, §4

[8] = tested on: 3 tumor lines; assay: Cell growth of the 3 tumor lines without and with added C5a; assay type: cell-based, murine; details: all 3 tumor lines
Description: as §1

[9] = tested on: PI-3Kγ; assay: PI-3Kγ enzyme activity in immunoprecipitates of tumor lines with added C5a; assay type: cell-based, murine; details: PI-3Kγ immunoprecipitates
Description: as §1

Molecule | anti-CD3+anti-CD28-induced phosphorylation of AKT [1] | upregulation of IL-2 and IFNγ mRNA expression ([2]; 0.1 μM PI-103) | upregulation of complement gene expression ([2]; 0.1 μM PI-103) | EGF induced EGFR phosphorylation ([3]; 3 tumor lines, 2 hr pre-treatment, increasing amounts of EGF for 2 min) | overcoming of the suppressive effects of PI-103 by added C5a ([2]; 0.1 μM PI-103 + 10 ng/ml C5a) | augmentation of 6 hr viability of C5-deficient or C3−/− T cells [4] | cell survival in comparison with control [5] | cell survival in comparison with control [6] | cell survival in comparison with control [7] | EGFR phosphorylation ([3]; anti-EGFR immunoprecipitates, added C5a) | tumor cell numbers [8] | PI-3Kγ enzyme activity [9]
Oc1cccc(-c2nc(N3CCOCC3)c3oc4ncccc4c3n2)c1 [PI-103] | abrogated | eliminated | prevented | inhibited EGFR phosphorylation in an identical fashion |  |  |  |  |  |  |  | 
C5a: Murine C5a complement anaphylatoxin from Cell Sciences (protein) NLHLLRQKIEEQAAKYKHSVPKKCCYDGARVNFYETCEERVARVTIGPLCIRAFNECCTIANKIRKESPHKPVQLGR |  |  |  |  | could not be overcome | ~25% | enhances cell survival | enhances cell survival | enhances cell survival | augmented EGFR phosphorylation | increased tumor cell numbers | augmented PI-3Kγ enzyme activity
